Measured values published in doi:10.1101/2024.04.06.588283.

Biological target: MBP-PrLD (C-terminal half of FCA containing prion-like domains) (Arabidopsis)
Assay: SEC-MALS

**Q.** For “MBP-PrLD (C-terminal half of FCA containing prion-like domains) (domain or fragment)”, which stoichiometry N is on record?
**A.** Its stoichiometry N is over 100 molecules.
